The results in this text go back to patent US20160274109A1.

The experiment has as its target Rap1B (Rap1B portion of the EPAC2-GFP-RAP1B sensor) (Homo sapiens (Human)) (UniProt P61224). Kind of experiment: cell-based or functional assay.

Rap1B (Rap1B portion of the EPAC2-GFP-RAP1B sensor) (Homo sapiens (Human)), sequence (P61224 other isoform, or with tags, fused parts or gaps limits assumed): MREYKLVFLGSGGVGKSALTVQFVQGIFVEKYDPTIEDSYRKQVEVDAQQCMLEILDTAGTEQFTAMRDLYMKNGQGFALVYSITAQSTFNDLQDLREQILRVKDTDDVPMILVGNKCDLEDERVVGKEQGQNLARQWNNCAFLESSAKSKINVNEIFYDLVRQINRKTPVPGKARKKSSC

Regarding “Epac2 (Epac2 portion of the EPAC2-GFP-RAP1B sensor) (from UniProt Q8WZA2 1-1011)”, the Relative Change in Fluorescence in Response to Isoproternol (EPAC2gfpRAP1B sensor) stood at 26%.

As to “Epac2 (Epac2 portion of the EPAC2-GFP-RAP1B sensor) (from UniProt Q8WZA2 1-1011) (enzyme)”, the change in fluorescence of the tethered Epac2-cpEGFP-Rap1B sensor in response to drug (isoproterenol), HEK 293 cells turned out to be 25%.
